Source: US10119980B2, “Method for detection of basic peptide and reagent for detection of basic peptide” (SYSMEX CORPORATION, priority 2009, dated 2018)
One block for each molecule: values may come before it. Ends that are not written are not given here.

Key:
heat-denatured BSA = molecular target: T1, heat-denatured BSA (Bos taurus, UniProt P02769); assay: Turbidity (OD550) measurement and Hill plot analysis of peptides mixed with heat-denatured BSA reagent; assay type: binding, bovine; settings: for change in OD550 with increasing peptide concentration: peptide mixed with heat-denatured BSA, final 0.2 w/v %; for Hill coefficient n: Example 5, peptide 0 to 80 μM
T1 construct: purchased Sigma-Aldrich
T1 sequence (P02769 25-607): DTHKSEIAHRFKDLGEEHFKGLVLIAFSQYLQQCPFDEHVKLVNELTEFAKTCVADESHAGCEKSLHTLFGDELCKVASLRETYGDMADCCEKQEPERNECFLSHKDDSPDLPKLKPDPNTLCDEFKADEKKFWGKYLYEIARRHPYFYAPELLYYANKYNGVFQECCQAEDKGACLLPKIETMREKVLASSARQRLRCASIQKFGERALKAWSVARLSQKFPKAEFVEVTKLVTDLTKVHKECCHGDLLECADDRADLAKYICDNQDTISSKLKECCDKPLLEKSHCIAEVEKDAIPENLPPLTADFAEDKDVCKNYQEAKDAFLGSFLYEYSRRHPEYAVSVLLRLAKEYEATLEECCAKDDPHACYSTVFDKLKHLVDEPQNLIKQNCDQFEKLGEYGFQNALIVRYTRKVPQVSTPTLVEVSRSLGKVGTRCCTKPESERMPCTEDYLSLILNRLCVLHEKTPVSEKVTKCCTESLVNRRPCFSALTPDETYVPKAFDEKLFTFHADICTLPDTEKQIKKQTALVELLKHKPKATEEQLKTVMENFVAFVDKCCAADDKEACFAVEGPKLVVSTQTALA
Procedure: A partial dynorphin A peptide consisting of amino acids of positions 1 to 13 of dynorphin A (SEQ ID NO: 2; Peptide Institute, Inc.) was used as the basic peptide of interest. A neutral peptide, α-endorphin (SEQ ID NO: 3; Peptide Institute, Inc.) was also used as a comparative peptide of interest. These peptides were dissolved in ultrapure water to prepare samples containing respective peptides (1.0 mg/ml).
(§1) The denatured BSA solution prepared in the above (1) (50 μl) was mixed with the respective samples prepared in (2) followed by addition of ultrapure water to prepare a total volume of 250 μl of mixed solutions containing respective peptides. In the preparation, the sample was mixed so as to obtain a final concentration of the respective peptides in the mixed solutions of 0 to 150 μM.
The thus-prepared mixed solutions were measured for OD550 in the similar manner as Example 1.
A fragment of kininogen (positions 439 to 457 (SEQ ID NO: 4); synthesized at Biologica Co.) and a fragment of ITIH4 (positions 611 to 642 (SEQ ID NO: 5); synthesized at Biologica Co.) which were known as cancer metastasis markers were used as basic peptides of interest. These peptides were dissolved in ultrapure water to prepare samples containing respective peptides (1.0 mg/ml).
as §1, with “80” for “150”
The thus-prepared mixed solutions were measured for OD550 in the similar manner as Example 1. The Kd value and Hill coefficient were calculated for the respective samples.
Besides a basic peptide, to be studied for comparison, a neutral peptide Fibrinogen α (SEQ ID NO: 6; Biological Co.) and acidic peptides C3f (SEQ ID NO: 7; Biologica Co.) and Factor XIII (SEQ ID NO: 8; Biologica Co.) were prepared. These peptides were dissolved in ultrapure water to prepare samples containing respective peptides (1.0 mg/ml).
as §1, with “solutions containing the respective peptides.” for “solutions containing respective peptides.”, “was mixed with the heat-denatured BSA solution so as” for “was mixed so as”, “0 to 80 μM.” for “0 to 150 μM.”

[1] = molecular target: T2, partial ACTH peptide (positions 1 to 24 of ACTH) (Homo sapiens, UniProt P01189); assay: Turbidity (OD550) measurement and Hill plot analysis of albumin reagents mixed with partial ACTH peptide; assay type: binding; settings: for change in OD550 with increasing partial ACTH peptide concentration: albumin reagent mixed with partial ACTH peptide
T2 construct: consisting of the amino acids of positions 1 to 24 of ACTH
T2 sequence (P01189 138-161): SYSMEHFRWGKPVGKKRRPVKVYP
Procedure: BSA (Sigma-Aldrich) was dissolved in Milli-Q® water (Millipore) to prepare a BSA solution (1.0 w/v %). The BSA solution was divided into two and one was designated as a non-denatured BSA solution and the other was autoclaved at 110° C. for 15 minutes to obtain a heat-denatured BSA solution.
A partial ACTH peptide (Peptide Institute, Inc.) consisting of the amino acids of positions 1 to 24 of ACTH was used as the basic peptide of interest. The peptide was dissolved in ultrapure water to prepare a sample containing the basic peptide of interest (1.0 mg/ml).
The heat-denatured BSA solution prepared in the above (1) (50 μl) was mixed with the sample prepared in (2) followed by addition of ultrapure water to prepare a total volume of 250 μl of a mixed solution (final concentration of heat-denatured BSA: 0.2 w/v %). In this preparation, the sample was mixed so as to obtain a final concentration of the partial ACTH peptide in the mixed solution of 0 to 150 μM. A comparative mixed solution was also prepared in the similar manner except that the non-denatured BSA solution was used instead of the heat-denatured BSA solution.
The thus-prepared mixed solutions were measured for absorbance at the wavelength of 550 nm (OD550) in a spectrophotometer UV-2500PC (Shimadzu Corporation). The obtained results were subjected to Hill plot analysis with KaleidaGraph (HULINKS, Inc.) to calculate the values of Kd and the Hill coefficient of heat-denatured BSA and non-denatured BSA.
BSA (Sigma-Aldrich) was dissolved in Milli-Q® water (Millipore) to prepare a BSA solution (1.0 w/v %). The BSA solution was divided into five aliquots among which one was designated as a non-denatured BSA solution (heat denaturation period: 0 min) and the rest of four were heated in an autoclave at 110° C. for 5, 15, 60 and 120 min, respectively, to obtain heat-denatured BSA solutions.
The Kd value and Hill coefficient of BSA at respective heat denaturation periods were calculated. […]
The Kd value and Hill coefficient were calculated for the mixed solutions. […]

[2] = Example 1, final BSA 0.2 w/v %, peptide 0 to 150 μM, OD550 Hill plot
[3] = Example 6, albumin autoclaved at 115° C. for 15 minutes, final 0.2 w/v %, peptide 0 to 80 μM

Molecule: CC[C@H](C)[C@H](NC(=O)[C@H](CCCNC(=N)N)NC(=O)[C@H](CCCNC(=N)N)NC(=O)[C@H](CC(C)C)NC(=O)[C@H](Cc1ccccc1)NC(=O)CNC(=O)CNC(=O)[C@@H](N)Cc1ccc(O)cc1)C(=O)N[C@@H](CCCNC(=N)N)C(=O)N1CCC[C@H]1C(=O)N[C@@H](CCCCN)C(=O)N[C@@H](CC(C)C)C(=O)N[C@@H](CCCCN)C(=O)O [partial dynorphin A peptide]
- Kd (heat-denatured BSA): 30 µM
- Hill coefficient (heat-denatured BSA; Example 4, peptide 0 to 150 μM, OD550 Hill plot): 8
- change in OD550 with increasing peptide concentration (heat-denatured BSA): increased in a concentration dependent manner

Molecule: GESRNRNVHSGSTFFKYYLQGAKIPKPEASFS [ITIH4 (611-642)]
- Hill coefficient n (heat-denatured BSA; OD550 Hill plot): 9
- change in OD550 with increasing peptide concentration (heat-denatured BSA): increased in a peptide concentration dependent manner

Molecule: HNLGHGHKHERDQGHGHQR [Kininogen (439-457)]
- Hill coefficient n (heat-denatured BSA; OD550 Hill plot): 8
- change in OD550 with increasing peptide concentration (heat-denatured BSA): increased

Molecule: α-endorphin (YGGFMTSEKSQTPLVT; listed as Homo sapiens)
- change in OD550 with increasing peptide concentration (heat-denatured BSA): no change in OD550

Now from value to molecule, other results behind:

- change in OD550 with increasing peptide concentration (heat-denatured BSA): no change in OD550
Molecule: C3f: acidic peptide C3f (SEQ ID NO: 7) (HWESASLL; listed as Homo sapiens)

- change in OD550 with increasing peptide concentration (heat-denatured BSA): no change in OD550
Molecule: Factor XIII: acidic peptide Factor XIII (SEQ ID NO: 8) (AVPPNNSNAAEDDLPTVELQGVVPR; listed as Homo sapiens)

- change in OD550 with increasing peptide concentration (heat-denatured BSA): no change in OD550
Molecule: Fibrinogen α: neutral peptide Fibrinogen α (SEQ ID NO: 6) (DEAGSEADHEGTHSTKRGHAKSRPV; listed as Homo sapiens)

- Hill coefficient n [1, 2]: 1
- Kd [1, 2]: 290 µM
- change in OD550 with increasing partial ACTH peptide concentration ([1]; listed as BSA solution that was heat-denatured for 0 min): not changed
- Hill coefficient n ([1]; heat denaturation period 0 min): 1
- Kd ([1]; heat denaturation period 0 min): 290 µM
Molecule: Non-denatured BSA: BSA (Sigma-Aldrich) solution 1.0 w/v %, not heated; comparative reagent [reference compound]
- change in OD550 with increasing partial ACTH peptide concentration [1]: significant change in the value of OD550 was not observed

- Hill coefficient n [1, 3]: 3
- Kd [1, 3]: 67 µM
- Hill coefficient n ([1]; Example 6, albumin autoclaved at 115° C. for 15 minutes, final 0.2 w/v %, peptide 0 to 80 μM, listed as heat-denatured OA): 11
B1: Heat-denatured OA: ovoalbumin solution (1.0 w/v %), pH 5 to 7, autoclaved at 115° C. for 15 minutes (protein)
chain: GSIGAASMEFCFDVFKELKVHHANENIFYCPIAIMSALAMVYLGAKDSTRTQINKVVRFDKLPGFGDSIEAQCGTSVNVHSSLRDILNQITKPNDVYSFSLASRLYAEERYPILPEYLQCVKELYRGGLEPINFQTAADQARELINSWVESQTNGIIRNVLQPSSVDSQTAMVLVNAIVFKGLWEKAFKDEDTQAMPFRVTEQESKPVQMMYQIGLFRVASMASEKMKILELPFASGTMSMLVLLPDEVSGLEQLESIINFEKLTEWTSSNVMEERKIKVYLPRMKMEEKYNLTSVLMAMGITDVFSSSANLSGISSAESLKISQAVHAAHAEINEAGREVVGSAEAGVDAASVSEEFRADHPFLFCIKHIATNAVLFFGRCVSP
- change in OD550 with increasing partial ACTH peptide concentration [1]: increase in a manner dependent on the concentrations of the basic peptide
